Assay results: IntAct's records for PubMed 12620189

B1: SCOCO-like protein 1 (Saccharomyces cerevisiae), Q3E784 (parent)
chain: MSAENISTGSPTGKQPSSEVNLGEREAGTKNERMMRQTKLLKDTLDLLWNKTLEQQEVCEQLKQENDYLEDYIGNLMRSSNVLEK
partner: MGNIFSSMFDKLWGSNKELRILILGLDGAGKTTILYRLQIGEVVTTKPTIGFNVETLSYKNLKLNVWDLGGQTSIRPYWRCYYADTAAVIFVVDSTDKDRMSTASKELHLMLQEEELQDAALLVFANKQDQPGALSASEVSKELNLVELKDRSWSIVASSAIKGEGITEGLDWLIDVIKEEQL

Variants of: B1
Settings: with arl1_yeast ARL1, P38116
For MSAENISTGSPTGKQPSSEVNLGEREAGTKNERMMRQTKLLKDTLDLLWNKTLEQQEVCEQLKQENDYLEDAIGNLMRSSNVLEK, the “effect of a mutation on the interaction” value was “disrupting interaction”.
